± gives the standard deviation.

The values that follow come from the supplement of paper PMC10567573.

The nature of this data set: protein stability index of a GFP-peptide fusion (GPS, HEK-293T) (PSI 1-6); higher = more stable. As to conditions: c terminus: a fixed tail appended.
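Also: 24-mer peptide tiles fused after GFP, lentivirally expressed, FACS-sorted into six equal bins by GFP/DsRed ratio, decoded by Illumina sequencing, PSI is the read-weighted mean bin number.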

For SLTRSNRHRLRWHSFQSSHRPSLN [DLC1], the protein stability index reads like this: (treatment: DMSO) 3.05 ± 0.14; (treatment: MLN4924 1 uM, 8 h) 3.41 ± 0.31.

With SNAMLVGDKLKFLSMLLTLKCEMN [ACSBG2], the protein stability index reads like this: (treatment: DMSO) 2.66 ± 0.62; (treatment: MLN4924 1 uM, 8 h) 2.52 ± 0.052.

On to SNCCFTFSGHFLCTSSWDKNLKIW [WDR88], for which the protein stability index is, setting by setting: (treatment: DMSO) 2.22 ± 0.97; (treatment: MLN4924 1 uM, 8 h) 2.3 ± 0.4.

SNCLGIRDFAETHNCVDLMQAAEV [KLHL12]: the protein stability index is, setting by setting: (treatment: DMSO) 4.05 ± 0.64; (treatment: MLN4924 1 uM, 8 h) 3.68 ± 0.59.

On to SNDGARRQFEFYLEEMILPLMVAS [BTBD10], for which the protein stability index by setting is: (treatment: DMSO) 2.25 ± 0.078; (treatment: MLN4924 1 uM, 8 h) 2.2 ± 0.073.

On to SNFNYFYHRETEGEEQSQYMHVGS [KCNA3], for which the protein stability index amounted to 3.89 ± 0.08 (treatment: DMSO) and 3.88 ± 0.48 (treatment: MLN4924 1 uM, 8 h).

Consider SPNRSLPSPGVLCGSARPKPYDPP [ATF4], for which the protein stability index by setting is: (treatment: DMSO) 3.67 ± 0.19; (treatment: MLN4924 1 uM, 8 h) 3.72 ± 0.26.

Turning to SPWDQEERPAQRDCSFPGLPRHQD [TRAF3IP2], the protein stability index stood at 5.48 ± 0.23 (treatment: DMSO) and 5.36 ± 0.38 (treatment: MLN4924 1 uM, 8 h).

SQKVLGLNEDPLKWWSDRLALFPL [ZBED1] yielded a protein stability index (treatment: MLN4924 1 uM, 8 h) of 2.14 ± 0.63.

As to SQPAVELVSGSQSALGPPPAASNS [CLINT1], the protein stability index is 5.04 ± 0.31 (treatment: DMSO) and 5.21 ± 0.33 (treatment: MLN4924 1 uM, 8 h).

Take SRIAKGGVDHTKMSLHGASGGHER [BTBD10]: the protein stability index is, setting by setting: (treatment: DMSO) 4.5 ± 0.19; (treatment: MLN4924 1 uM, 8 h) 4.43 ± 0.14.

Consider SRKGELTPLPETGYWRVRLWNGDK [TRIM39], for which the protein stability index runs as follows: (treatment: DMSO) 2.63 ± 0.057; (treatment: MLN4924 1 uM, 8 h) 2.58 ± 0.36.

Regarding SRVTDPVGDIVSFMHSFEEKYGRA [FAF2], the protein stability index runs as follows: (treatment: DMSO) 3.34 ± 0.25; (treatment: MLN4924 1 uM, 8 h) 3.59 ± 0.36.

On to SSCYPLIPSTPEEVSADDETPNPP [MAGEA10], for which the protein stability index reads like this: (treatment: DMSO) 5.46 ± 0.31; (treatment: MLN4924 1 uM, 8 h) 5.44 ± 0.27.

For the sequence SSEVDELIHKADEVTLSEAGSTAG [PALM], the protein stability index by setting is: (treatment: DMSO) 5.65 ± 0.15; (treatment: MLN4924 1 uM, 8 h) 5.58 ± 0.16.

SSSSLGNKLQTLSPSHKGIAAPHA [ZC2HC1A]: the protein stability index reads like this: (treatment: DMSO) 3.81 ± 0.22; (treatment: MLN4924 1 uM, 8 h) 3.97 ± 0.26.

In turn, SSSTPLEDEEPQEPNRLETGEAGE [RTN2] showed a protein stability index (treatment: DMSO) of 5.51 ± 0.34 and a protein stability index (treatment: MLN4924 1 uM, 8 h) of 5.56 ± 0.3.

With SSTSCLMPSKLFAGLVHVKQCIVA [CRYL1], the protein stability index is, setting by setting: (treatment: DMSO) 2.44 ± 0.31; (treatment: MLN4924 1 uM, 8 h) 2.11 ± 0.25.

The sequence STFSSGPSDKMKWCLRVNPKGLDD [SPOPL] came in with a protein stability index (treatment: DMSO) of 2.73 ± 0.5 and a protein stability index (treatment: MLN4924 1 uM, 8 h) of 3 ± 0.47.

In the case of STTEWNDETLYQEFNGLKKMNPKL [CHIT1], the protein stability index is, setting by setting: (treatment: DMSO) 4.2 ± 0.2; (treatment: MLN4924 1 uM, 8 h) 4.54 ± 0.2.

STVISSMPCLLMELRRDSSESQLA [C18orf25]: the protein stability index runs as follows: (treatment: DMSO) 3.02 ± 0.13; (treatment: MLN4924 1 uM, 8 h) 3.13 ± 0.33.

Sequence SVMAIERCIGVTKPIFHSTKITSK [PTGFR] returned a protein stability index (treatment: DMSO) of 2.71 ± 0.16 and a protein stability index (treatment: MLN4924 1 uM, 8 h) of 2.98 ± 0.49.

Regarding SVSQDFPGSNLNLLTNNSGTPKDH [ETS2], the protein stability index runs as follows: (treatment: DMSO) 4.8 ± 0.38; (treatment: MLN4924 1 uM, 8 h) 4.83 ± 0.27.

As for SVTGYSFASDGDSGTCSPLRHSFQ [ADD1], the protein stability index runs as follows: (treatment: DMSO) 3.28 ± 0.25; (treatment: MLN4924 1 uM, 8 h) 3.11 ± 0.36.

With SYGPVILVVLVVAVVASSVNSYYS [TOR1AIP2], the protein stability index is, setting by setting: (treatment: DMSO) 3.57 ± 0.3; (treatment: MLN4924 1 uM, 8 h) 2.85 ± 0.095.

Regarding SYKYTSRYVLKAGQTVTIWAANAG [LMNB1], the protein stability index came to 2.24 ± 0.25 (treatment: DMSO) and 1.87 ± 0.25 (treatment: MLN4924 1 uM, 8 h).

In the case of SYLLKSGADKEILTTKGEMPVQLT [ANKRD40], the protein stability index (treatment: DMSO) stood at 3.46 ± 0.38 and the protein stability index (treatment: MLN4924 1 uM, 8 h) worked out at 3.55 ± 0.19.

Sequence TACKPVIRVPSVPPVPCVPSVPCT [KRT36] showed a protein stability index (treatment: DMSO) of 3.15 ± 0.28 and a protein stability index (treatment: MLN4924 1 uM, 8 h) of 3.27 ± 0.2.

As to TAEKRKRLGELFNPYYDPLQWKSS [CHGB], the protein stability index is, setting by setting: (treatment: DMSO) 2.54 ± 0.17; (treatment: MLN4924 1 uM, 8 h) 2.93 ± 0.34.

Consider TAIKSIEFARKGSCFLINTADRII [RBBP5], for which the protein stability index came out at 2.6 ± 0.22 (treatment: DMSO) and 2.75 ± 0.78 (treatment: MLN4924 1 uM, 8 h).

Consider TALVTVSSEEFEDKWFRKIKDHFC [C8orf76], for which the protein stability index (treatment: DMSO) stood at 2.33 ± 0.16 and the protein stability index (treatment: MLN4924 1 uM, 8 h) stood at 2.54 ± 0.25.

TARMEMLIEELYAFMPARSQDPKK [CBY2]: the protein stability index turned out to be 2.66 ± 0.39 (treatment: DMSO) and 2.94 ± 0.27 (treatment: MLN4924 1 uM, 8 h).

TASKAIIEKEYQPHVIVSTTGPNP [ADD1]: the protein stability index reads like this: (treatment: DMSO) 4.47 ± 0.21; (treatment: MLN4924 1 uM, 8 h) 4.65 ± 0.16.

Regarding TATFAVHFMVLSKSGPGDGFFSSA [POMT2], the protein stability index reads like this: (treatment: DMSO) 2.84 ± 0.36; (treatment: MLN4924 1 uM, 8 h) 2.93 ± 0.51.

Regarding TAVGAILAGGLCVGIYATNSAEAC [ACSBG2], the protein stability index by setting is: (treatment: DMSO) 2.35 ± 0.12; (treatment: MLN4924 1 uM, 8 h) 2.84 ± 0.75.

As to TCADRDNLTRRFSDLGFEVKCFND [CASP6], the protein stability index is, setting by setting: (treatment: DMSO) 2.96 ± 0.32; (treatment: MLN4924 1 uM, 8 h) 3.24 ± 0.21.

TDIDLQTIDNDIVSMEIFFKAWLH [M1AP]: the protein stability index reads like this: (treatment: DMSO) 2.39 ± 0.33; (treatment: MLN4924 1 uM, 8 h) 2.34 ± 0.45.

As for TDLAQQQGGGNGQQQQAMSFAILR [KCNA4], the protein stability index (treatment: DMSO) worked out at 3.96 ± 0.1 and the protein stability index (treatment: MLN4924 1 uM, 8 h) is 3.81 ± 0.35.

TDLKTLCCEFLEGCIAAENCIGIR [GAN]: the protein stability index runs as follows: (treatment: DMSO) 2.35 ± 0.4; (treatment: MLN4924 1 uM, 8 h) 2.48 ± 0.2.

TEDGKLDIWSKSNYQVFQKVTDHA [MED27]: the protein stability index is, setting by setting: (treatment: DMSO) 3.67 ± 0.27; (treatment: MLN4924 1 uM, 8 h) 3.77 ± 0.42.

For TEFTRFLCSSPLEAETPPNGPDCG [ATE1], the protein stability index runs as follows: (treatment: DMSO) 4.66 ± 0.086; (treatment: MLN4924 1 uM, 8 h) 4.52 ± 0.17.

For TEMIITKAGRRMFPACRVSVTGLD [TBX6], the protein stability index worked out at 2.31 ± 0.3 (treatment: DMSO) and 2.2 ± 0.22 (treatment: MLN4924 1 uM, 8 h).

In the case of TENSALQLQVTEREEVRGRELTGL [LMNB1], the protein stability index reads like this: (treatment: DMSO) 5.14 ± 0.2; (treatment: MLN4924 1 uM, 8 h) 5.13 ± 0.28.

TEQFTAMRDLYMKNGQGFALVYSI [RAP1B]: the protein stability index came to 3.25 ± 1 (treatment: DMSO) and 2.96 ± 0.5 (treatment: MLN4924 1 uM, 8 h).

With TFDHEHHTTIVATRHYRPPEVILE [CLK3], the protein stability index came out at 3.34 ± 0.19 (treatment: DMSO) and 3.29 ± 0.17 (treatment: MLN4924 1 uM, 8 h).

As for TGACGEAMAAAEGSSGPAGLTLGR [SEPHS2], the protein stability index (treatment: DMSO) came to 3.78 ± 0.082 and the protein stability index (treatment: MLN4924 1 uM, 8 h) worked out at 3.87 ± 0.055.

With TGLSGGKRPSQEEDTQSIGPKVQR [CRY1], the protein stability index is, setting by setting: (treatment: DMSO) 5 ± 0.33; (treatment: MLN4924 1 uM, 8 h) 5.04 ± 0.23.

The sequence THRLKDGSTMLIEAAKGGHTSVVC [ANKRD17] registered a protein stability index (treatment: DMSO) of 2.51 ± 0.33 and a protein stability index (treatment: MLN4924 1 uM, 8 h) of 2.56 ± 0.33.

With THSSLSQELQARLQTVTREKEELL [CCDC89], the protein stability index is, setting by setting: (treatment: DMSO) 4.89 ± 0.35; (treatment: MLN4924 1 uM, 8 h) 4.68 ± 0.22.

On to TIGNLVPQKTYSVKVLAFTSIGDG [PTPRD], for which the protein stability index reads like this: (treatment: DMSO) 2.39 ± 0.16; (treatment: MLN4924 1 uM, 8 h) 2 ± 0.33.

Turning to TIPATLLVDHVGSKTFLCIGSSVM [SLC2A12], the protein stability index (treatment: DMSO) came to 2.69 ± 0.5 and the protein stability index (treatment: MLN4924 1 uM, 8 h) is 2.34 ± 0.44.

Regarding TIQKGSYTFVPWLLSFKRGSALEE [TNFSF13B], the protein stability index worked out at 2.11 ± 0.15 (treatment: DMSO) and 2.04 ± 0.22 (treatment: MLN4924 1 uM, 8 h).

Take TKADIGTPSNFQHIGHVGWDPNTG [WASL]: the protein stability index stood at 3.81 ± 0.21 (treatment: DMSO) and 3.85 ± 0.18 (treatment: MLN4924 1 uM, 8 h).
